Results published in patent US7078233.

Target: T1, 6-methylsalicylic acid synthase (6-MSAS) from Penicillium patulum, P22367
T1 chain: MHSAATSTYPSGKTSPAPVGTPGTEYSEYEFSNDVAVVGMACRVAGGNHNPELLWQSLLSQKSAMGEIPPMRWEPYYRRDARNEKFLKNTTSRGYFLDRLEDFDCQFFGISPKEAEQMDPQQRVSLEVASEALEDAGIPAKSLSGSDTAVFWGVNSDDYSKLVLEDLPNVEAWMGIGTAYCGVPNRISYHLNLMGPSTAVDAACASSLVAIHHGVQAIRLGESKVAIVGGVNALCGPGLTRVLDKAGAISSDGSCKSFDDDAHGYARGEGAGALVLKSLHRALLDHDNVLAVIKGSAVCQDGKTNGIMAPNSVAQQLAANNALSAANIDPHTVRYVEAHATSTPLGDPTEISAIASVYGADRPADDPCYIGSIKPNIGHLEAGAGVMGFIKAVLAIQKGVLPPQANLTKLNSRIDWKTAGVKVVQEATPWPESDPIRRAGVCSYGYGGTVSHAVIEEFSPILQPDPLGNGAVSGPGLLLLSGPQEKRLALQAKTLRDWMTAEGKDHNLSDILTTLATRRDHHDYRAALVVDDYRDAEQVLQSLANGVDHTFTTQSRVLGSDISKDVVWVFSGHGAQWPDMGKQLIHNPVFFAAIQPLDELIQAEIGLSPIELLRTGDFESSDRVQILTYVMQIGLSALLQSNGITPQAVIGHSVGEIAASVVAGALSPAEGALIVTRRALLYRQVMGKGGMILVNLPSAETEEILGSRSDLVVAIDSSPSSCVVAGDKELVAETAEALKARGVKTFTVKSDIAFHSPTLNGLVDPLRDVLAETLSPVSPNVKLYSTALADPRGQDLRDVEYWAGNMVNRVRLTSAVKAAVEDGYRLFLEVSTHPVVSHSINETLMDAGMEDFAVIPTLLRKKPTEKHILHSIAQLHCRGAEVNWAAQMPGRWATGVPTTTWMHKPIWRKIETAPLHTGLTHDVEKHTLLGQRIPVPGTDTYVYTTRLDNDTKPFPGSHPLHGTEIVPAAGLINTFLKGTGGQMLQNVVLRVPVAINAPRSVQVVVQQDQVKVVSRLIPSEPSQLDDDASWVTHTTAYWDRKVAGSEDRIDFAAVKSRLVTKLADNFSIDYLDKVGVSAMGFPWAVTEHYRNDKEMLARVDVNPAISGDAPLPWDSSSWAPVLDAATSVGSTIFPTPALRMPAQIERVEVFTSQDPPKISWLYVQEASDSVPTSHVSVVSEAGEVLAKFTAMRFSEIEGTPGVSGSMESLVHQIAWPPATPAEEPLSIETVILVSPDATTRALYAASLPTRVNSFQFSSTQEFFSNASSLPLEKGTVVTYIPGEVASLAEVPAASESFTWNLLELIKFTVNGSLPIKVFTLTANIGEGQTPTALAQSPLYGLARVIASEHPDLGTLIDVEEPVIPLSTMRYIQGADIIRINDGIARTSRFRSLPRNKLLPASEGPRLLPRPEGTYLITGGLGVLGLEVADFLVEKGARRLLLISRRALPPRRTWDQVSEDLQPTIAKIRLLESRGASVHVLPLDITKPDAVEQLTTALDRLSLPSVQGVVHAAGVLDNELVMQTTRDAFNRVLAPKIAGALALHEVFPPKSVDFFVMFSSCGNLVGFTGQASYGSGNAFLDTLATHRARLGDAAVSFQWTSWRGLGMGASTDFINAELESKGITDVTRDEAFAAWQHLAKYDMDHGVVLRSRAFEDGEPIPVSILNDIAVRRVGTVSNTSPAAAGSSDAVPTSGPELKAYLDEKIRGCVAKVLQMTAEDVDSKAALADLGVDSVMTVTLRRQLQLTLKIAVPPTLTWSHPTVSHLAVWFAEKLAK

B1: Bacillus subtilis surfactin holo ACP synthase (sfp) (protein)
chain: MKIYGIYMDRPLSQEENERFMSFISPEKREKCRRFYHKEDAHRTLLGDVLVRSVISRQYQLDKSDIRFSTQEYGKPCIPDLPDAHFNISHSGRWVICAFDSQPIGIDIEKTKPISLEIAKRFFSKTEYSDLLAKDKDEQTDYFYHLWSMKESFIKQEGKGLSLPLDSFSVRLHQDGQVSIELPDSHSPCYIKTYEVDPGYKMAVCAAHPDFPEDITMVSYEELL
radioactivity from labeled beta-alanine in the 190 kD 6-MSAS band on SDS-PAGE, E. coli SJ16 cotransformed with plasmids 108 (sfp) and 109 (6-MSAS): a detectable amount of radioactivity was found in the 190 kD 6-MSAS band
